Laboratory results from publication doi:10.1101/2025.05.28.656462 (bioRxiv, 2025).

Target: the molecule itself
Experiment: SEC

B1: full-length Pseudomonas aeruginosa bacteriophytochrome PaBphP, wild type (FL-PaBphP-D) (natural protein)
chain: MTSITPVTLANCEDEPIHVPGAIQPHGALVTLRADGMVLAASENIQALLGFVASPGSYLTQEQVGPEVLRMLEEGLTGNGPWSNSVETRIGEHLFDVIGHSYKEVFYLEFEIRTADTLSITSFTLNAQRIIAQVQLHNDTASLLSNVTDELRRMTGYDRVMAYRFRHDDSGEVVAESRREDLESYLGQRYPASDIPAQARRLYIQNPIRLIADVAYTPMRVFPALNPETNESFDLSYSVLRSVSPIHCEYLTNMGVRASMSISIVVGGKLWGLFSCHHMSPKLIPYPVRMSFQIFSQVCSAIVERLEQGRIAELLRVSTERRLALARRARDADDLFGALAHPDDGIAALIPCDGALVMLGGRTLSIRGDFERQAGNVLQRLQRDPERDIYHTDNWPQPSEDSPDGGDCCGVLAIRFHRQESGWIFWFRHEEVHRIRWGGKPEKLLTIGPSGPRLTPRGSFEAWEEVVRGHSTPWSETDLAIAEKLRLDLMELCLNHAAEVDRMRQRLIAVLGHDLRNPLQSISMAAALLSSSDTRTTELRQHISASSSRMERLVSQILDMSRLQSGIGLTVNPVDTDVSQLVRQIVCETDVAYPGLVIEIAIDPQVRAVVDPDRYAQVAANLLSNARHHGLPGRPVLVTLTRQGDEVCLSVLNETSGLSEAQLANLFEPFKRESADNQRNRNGLGIGLYISQAIAQAHQGRIDVDCRDDVITFCLRLPVRQAETGSSS
- stoichiometry N: 2
